{"source": "patent US20090124570A1", "about": "“Methods and Compositions for Facilitating Tissue Repair and Diagnosing, Preventing, and Treating Fibrosis” (University of Maryland, Baltimore, priority 2007, published 2009)", "molecules": {"B1": {"name": "rhBIGH3: recombinant human BIGH3 (TGFBI, keratoepithelin), a 68 kDa extracellular matrix protein (protein, UniProt Q15582 24-683, looked up)", "Transforming growth …": "GPAKSPYQLVLQHSRLRGRQHGPNVCAVQKVIGTNRKYFTNCKQWYQRKICGKSTVISYECCPGYEKVPGEKGCPAALPLSNLYETLGVVGSTTTQLYTDRTEKLRPEMEGPGSFTIFAPSNEAWASLPAEVLDSLVSNVNIELLNALRYHMVGRRVLTDELKHGMTLTSMYQNSNIQIHHYPNGIVTVNCARLLKADHHATNGVVHLIDKVISTITNNIQQIIEIEDTFETLRAAVAASGLNTMLEGNGQYTLLAPTNEAFEKIPSETLNRILGDPEALRDLLNNHILKSAMCAEAIVAGLSVETLEGTTLEVGCSGDMLTINGKAIISNKDILATNGVIHYIDELLIPDSAKTLFELAAESDVSTAIDLFRQAGLGNHLSGSERLTLLAPLNSVFKDGTPPIDAHTRNLLRNHIIKDQLASKYLYHGQTLETLGGKKLRVFVYRNSLCIENSCIAAHDKRGRYGTLFTMDRVLTPPMGTVMDVLKGDNRFSMLVAAIQSAGLTETLNREGVYTVFAPTNEAFRALPPRERSRLLGDAKELANILKYHIGDEILVSGGIGALVRLKSLQGDKLEVSLKNNVVSVNKEPVAEPDIMATNGVVHVITNVLQPPANRPQERGDELADSALEIFKQASAFSRASQRSVRLAPVYQKLLERMKH"}}, "key": {"COL1A2 promoter": {"test_system": "COL1A2 promoter", "assay": "Collagen promoter-CAT reporter construct in transfected fibroblasts", "format": "cell-based, human", "procedure": "Production of collagen was measured in cell cultures utilizing the metabolic labeling of collagen with ^14C-proline as described by Luzina. I. G. Luzina et al. (2006) Am J Respir Cell Mol Biol. 35:298-305; I. G. Luzina et al. (2006) Arthritis Rheum. 54: 2643-2655. Briefly, fibroblast monolayers were pulsed with L-[U-^14C]-proline (Amersham Biosciences, Piscataway, N.J.) at 1 μCi/ml for the final 12 hours of incubation. Purified bacterial collagenase type III was purchased from Sigma Aldrich (St. Louis, Mo.). Fibroblasts were then ruptured by repeated freeze-thawing, and part of each sample digested with collagenase type III. The samples were pelleted with 20% TCA containing 0.1% L-proline, and then the pellets were resuspended and washed twice with 5% TCA and 95% ice-cold ethanol. The samples were assayed in a liquid scintillation counter in order to determine the amount of collagenase-digestible and non-digestible ^14C-labeled protein. Alternatively, collagen protein levels in cell culture supernatants were measured in Western blotting assays as described above. The activity of the COL1A2 promoter was measured in primary fibroblasts transfected with collagen promoter-chloramphenicol acetyltransferase (CAT) reporter constructs as described by Luzina. I. G. Luzina et al. (2006) Am J Respir Cell Mol Biol. 35:298-305. […]"}, "[1]": {"test_system": "primary pulmonary fibroblasts", "conditions": "as reported by Luzina et al. 2006; cited from earlier work"}, "[2]": {"test_system": "primary pulmonary fibroblasts", "assay": "Collagen production in primary fibroblast cultures (14C-proline incorporation, Western blotting)", "format": "cell-based, human", "conditions": "primary fibroblasts stimulated with rhBIGH3, various doses and times, 14C-proline incorporation and Western blotting", "procedure": "(§1) Preparation of cell lysates, immunoprecipitation of BIGH3 protein, normalization of protein concentration in the samples with BioRad assays, electrophoretic separation and Western blotting were performed as previously described by Atamas. S. P. Atamas et al. (2003) Am J Respir Cell Mol Biol. 29:743-749. Goat antibodies for BIGH3 were purchased from R&D Systems (Minneapolis, Minn.). Goat antibodies for MMP14 were purchased from Santa-Cruz Biotechnology (Santa Cruz, Calif.). Western blotting assays for collagen were performed using rabbit affinity purified anti-collagen type I antibody (Rockland, Gilbertsville, Pa.).\nProduction of collagen was measured in cell cultures utilizing the metabolic labeling of collagen with ^14C-proline as described by Luzina. I. G. Luzina et al. (2006) Am J Respir Cell Mol Biol. 35:298-305; I. G. Luzina et al. (2006) Arthritis Rheum. 54: 2643-2655. […] Alternatively, collagen protein levels in cell culture supernatants were measured in Western blotting assays as described above. The activity of the COL1A2 promoter was measured in primary fibroblasts transfected with collagen promoter-chloramphenicol acetyltransferase (CAT) reporter constructs as described by Luzina. […]\nTo test this possibility, fibroblast cultures were incubated for various times with various doses of recombinant human BIGH3 (rhBIGH3), and the levels of collagen accumulation were measured. […]"}, "COL1A2 mRNA": {"test_system": "COL1A2 mRNA", "assay": "Real-time PCR of COL1A2 mRNA in fibroblasts", "format": "cell-based, human", "conditions": "BIGH3-treated vs control fibroblast cultures", "procedure": "Total RNA purification, reverse transcription, and real-time PCR were performed using LightCycler (Roche, Indianapolis, Ind.), as previously described by Atamas. S. P. Atamas et al. (2003) Am J Respir Cell Mol Biol. 29:743-749. Quantification of internal control 18S ribosomal RNA was performed as reported previously by Luzina. I. G. Luzina et al. (2006) J Cell Physiol. 206:221-228. The PCR reaction mixture included the recommended components of the FastStart DNA Master Hybridization Probes Hot Start Reaction Mix (Roche, Indianapolis, Ind.). The fold difference in gene expression relative to 18S ribosomal RNA between treated and untreated cultures was calculated using the 2^−ΔΔCt method. I. G. Luzina et al. (2006) Arthritis Rheum. 54: 2643-2655. The primers and the hybridization probes for COL1A2 mRNA were designed and prepared by TIB Molbiol (Adelphia, N.J.). The primers for COL1A2 mRNA were: forward, 5′-GATGGTGAAGATGGTCCCACAGG-3′ (SEQ ID NO: 1) and reverse, 5′-GGTCGTCCGGGTTTTCCAGGGT-3′ (SEQ ID NO: 2). The hybridization probes were labeled with fluorescein at the 3′-terminus (3FL) of one probe and with LightCycler Red at the 5′-terminus (5LC) of the other probe. The probes were 3FL 5′-TTCCAAGGACCTGCTGGTGAGCCT-3′ (SEQ ID NO: 3) and 5LC 5′-TGAACCTGGTCAAACTGGTCCTGCAG-3′ (SEQ ID NO: 4). […]"}, "Smad3/4, Sp1, AP1, Ets": {"test_system": "Smad3/4, Sp1, AP1, Ets", "assay": "Transcription factor array, DNA binding of collagen promoter regulators in fibroblasts", "format": "cell-based, human", "conditions": "BIGH3-stimulated vs control fibroblasts, transcription factor arrays", "procedure": "Further experiments were performed to determine whether the increase in collagen levels stimulated by BIGH3 was due to transcriptional upregulation of the collagen gene expression.\n(§2) Nuclear extracts from BIGH3-activated and control fibroblast cultures were prepared using nuclear extraction kit from Active Motif (Carlsbad, Calif.) and adjusted for total protein content using Bio-Rad assays. DNA binding by 345 different transcription factors was evaluated using protein/DNA TranSignal™ system (Panomics, Redwood City, Calif.), following the manufacturer's recommendations."}, "PU.1": {"test_system": "PU.1", "assay": "Transcription factor array, DNA binding by PU.1 in fibroblasts", "format": "cell-based, human", "conditions": "fibroblasts stimulated with 300 ng/ml rhBIGH3", "procedure": "as §2"}, "p53": {"test_system": "p53", "assay": "Transcription factor array, DNA binding by p53 in fibroblasts", "format": "cell-based, human", "conditions": "fibroblasts stimulated with 300 ng/ml rhBIGH3", "procedure": "as §2"}, "MMP14": {"test_system": "MMP14", "assay": "Western blotting for MMP14 protein in primary fibroblasts", "format": "cell-based, human", "conditions": "fibroblasts with 300 ng/ml rhBIGH3 for 24 h or 48 h", "procedure": "as §1\nExperiments were performed to determine whether BIGH3 upregulates collagen levels in fibroblast cultures by attenuating collagen turnover. To address such a possibility, experiments were performed in which primary fibroblasts were incubated for 6 h with or without 300 ng/ml BIGH3. The expression levels of 84 genes related to connective tissue biology were analyzed using reverse transcriptase—real time PCR approach (RT^2 Profiler™ SuperArray, Frederick, Md.). […] These experiments were repeated on three independent occasions with primary fibroblast cultures from different donors, with consistent results. MMP14 is a critical factor for collagen turnover by fibroblasts. H. Lee et al. (2006) Mol Biol Cell. 17:4812-4826. […]"}, "[3]": {"test_system": "matrix metalloproteinase 2 (MMP2)", "assay": "MMP2 levels in primary fibroblast cultures", "format": "cell-based, human", "conditions": "primary fibroblast cultures stimulated with recombinant BIGH3"}}, "note": "Entries after “also recorded” stand apart in the source; their conditions may differ.", "data": [{"molecule": "TGF-β [reference compound]", "values": [{"measurement": "response of collagen promoter-CAT reporter construct", "setting": "COL1A2 promoter", "value": "responsive"}, {"measurement": "concentration of active TGF-β required for upregulation of collagen production", "setting": "[1]", "value": "at least 500 pg/ml"}]}, {"molecule": "B1", "values": [{"measurement": "collagen protein levels", "setting": "[2]", "value": "directly regulated collagen production; also recorded: Increases in collagen protein levels"}, {"measurement": "collagen protein levels", "setting": "[2]; listed as recombinant BIGH3", "value": "upregulation of collagen protein"}, {"measurement": "collagen (COL1A2) mRNA steady-state levels", "setting": "COL1A2 mRNA", "value": "no differences in steady-state levels; also recorded: did not stimulate an increase in collagen mRNA"}, {"measurement": "response of collagen promoter-CAT reporter construct", "setting": "COL1A2 promoter", "value": "no differences were observed; also recorded: non-responsive"}, {"measurement": "DNA binding activity of Smad3/4, Sp1, AP1, Ets", "setting": "Smad3/4, Sp1, AP1, Ets", "value": "no differences were detected; also recorded: no increase in the activity"}, {"measurement": "DNA binding by PU.1", "setting": "PU.1", "value": "significant upregulation"}, {"measurement": "DNA binding by PU.1", "setting": "PU.1; listed as BIGH3", "value": "increased"}, {"measurement": "DNA binding by p53", "setting": "p53", "value": "downregulation"}, {"measurement": "DNA binding by p53", "setting": "p53; listed as BIGH3", "value": "decreased"}, {"measurement": "MMP14 protein levels", "setting": "MMP14", "value": "decreased significantly"}, {"measurement": "MMP2 levels", "setting": "[3]", "value": "downregulation"}]}]}
